According to the supplement of paper PMC7125110:
± gives the standard error. Fewer inactive variants are shown than the library holds.

B1: glmS ribozyme (parent)
chain: AUAAAAGCGCCAGAACUACAGAAAUGUAGUUGACGAGGAGGAGGUUUAUCGAAUUUUCGGCGGAUGCCUCCAAA

What was measured:
Conditions in all cases: with glucosamine-6-phosphate
glucosamine-6-phosphate [1] = variants of: B1; experiment: self-cleavage kobs at 160 uM GlcN6P; higher = faster cleavage; RNA array
Summary of the method: (§1)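 Over ~14 h at 37 °C, tiles were imaged as glucosamine-6-phosphate (40 μM to 10 mM) in HEPES/KCl/Mg(OAc)2 buffer flowed across sequenced MiSeq chips. The chips carried barcoded ribozyme variants transcribed in situ by E. coli RNA polymerase and tracked with a hybridised Cy3 probe. After normalisation to baseline and to non-cleaving reference variants, one- or two-exponential decay fits of per-tile medians gave kobs. kcat and KM followed from weighted Michaelis–Menten fits across concentrations.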

glucosamine-6-phosphate [2] = variants of: B1; experiment: self-cleavage kobs at 2500 uM GlcN6P; higher = faster cleavage; RNA array
Summary of the method: as §1

glucosamine-6-phosphate [3] = variants of: B1; experiment: self-cleavage kobs at 640 uM GlcN6P; higher = faster cleavage; RNA array
Summary of the method: as §1

glucosamine-6-phosphate [4] = variants of: B1; experiment: self-cleavage kobs at 10000 uM GlcN6P; higher = faster cleavage; RNA array
Summary of the method: as §1

Variant	self-cleavage kobs at 160 uM GlcN6P (glucosamine-6-phosphate [1]) [s⁻¹]	self-cleavage kobs at 2500 uM GlcN6P (glucosamine-6-phosphate [2]) [s⁻¹]	self-cleavage kobs at 640 uM GlcN6P (glucosamine-6-phosphate [3]) [s⁻¹]	self-cleavage kobs at 10000 uM GlcN6P (glucosamine-6-phosphate [4]) [s⁻¹]
U31C G32C C70G	0.000701 ± 0.0003	0.000104 ± 2.4e-05		
A14C U47G C70A	6.05e-05 ± 2.8e-05	6.72e-05 ± 1.5e-05	0.000114 ± 3.4e-05	
G13U G32U C34A G44A	< 1e-05	< 1e-05		
A12C U31G U47A	0.000155 ± 5.6e-05		0.000707 ± 0.00032	
U31A C50G	0.000119 ± 2.4e-05	0.000577 ± 0.00022	0.000349 ± 0.00014	
A15U G32U A36G G43U U65A C67U	< 1e-05		< 1e-05	
C16U U47A A53G U54A	0.00109 ± 0.00027	0.00464 ± 0.00094	0.00231 ± 0.00054	
A15C A53C C68U	< 1e-05			
C16A A33U A36C A39C G43U	< 1e-05			
A12G G38U A52U A64U	< 1e-05	< 1e-05	< 1e-05	
U30A G44C	< 1e-05			
A12C U56C	6.31e-05 ± 1.4e-05	0.00111 ± 0.00017	0.000455 ± 8.2e-05	0.00253 ± 0.00077
C16G G59C A64C	< 1e-05			
G29U G37C A42C U46A	< 1e-05		< 1e-05	
A14G G35U G60A C68G	< 1e-05			
U30G G37U	< 1e-05		< 1e-05	< 1e-05
A14U A15C A48C U56A C67A	< 1e-05			
C16G A33C C58G G66A	< 1e-05	< 1e-05		
G13U G21U G37C	< 1e-05			
A15C U65A	3.48e-05 ± 1.4e-05	0.000234 ± 5.7e-05	0.000177 ± 2.9e-05	0.000807 ± 0.00016
A14C A36C A52U	< 1e-05		< 1e-05	< 1e-05
U30A G38U U65G C68G	0.000204 ± 4.9e-05	0.000149 ± 4.5e-05	0.000139 ± 4.3e-05	7.88e-05 ± 1.5e-05
G29A A39U G40A	7.25e-05 ± 2.4e-05	0.000397 ± 0.0001	0.000163 ± 5.7e-05	
U31A G38A A42C	< 1e-05		< 1e-05	
A14G G35U G66U	< 1e-05		< 1e-05	
A12C A36G U69C	< 1e-05			

Variant	self-cleavage kobs at 160 uM GlcN6P (glucosamine-6-phosphate [1]) [s⁻¹]	self-cleavage kobs at 2500 uM GlcN6P (glucosamine-6-phosphate [2]) [s⁻¹]	self-cleavage kobs at 640 uM GlcN6P (glucosamine-6-phosphate [3]) [s⁻¹]	self-cleavage kobs at 10000 uM GlcN6P (glucosamine-6-phosphate [4]) [s⁻¹]
A15G G40U C70A	4.48e-05 ± 1.3e-05	0.000773 ± 0.00016	0.000328 ± 8e-05	0.000531 ± 0.00014
A12U A14C C71U	0.000143 ± 4.4e-05	0.00169 ± 0.00033		
G13C A36U	< 1e-05	< 1e-05	< 1e-05	< 1e-05
U30A G40C U49G	< 1e-05	< 1e-05	< 1e-05	
G29C A36G G41U	< 1e-05	< 1e-05	< 1e-05	
U30C G43U	< 1e-05	< 1e-05		< 1e-05
U30C U69A	5.29e-05 ± 1.5e-05	5.71e-05 ± 1.2e-05	0.000111 ± 3e-05	2.76e-05 ± 6.9e-06
A15U A52U C58A C70U	< 1e-05			
C16U G40C U49C G51A	< 1e-05	< 1e-05	< 1e-05	
G29A G32A G62U	< 1e-05			
A12U G41C A52U G59A G60U	< 1e-05	< 1e-05		
C16G G35C A39G G60U C61U C68U C71A	< 1e-05	< 1e-05	< 1e-05	
C16U A53G U54C	0.000683 ± 0.00013	0.00421 ± 0.00075	0.00193 ± 0.00028	
A14U U30A A33U G51A	< 1e-05			
G13A A39G C68A	< 1e-05			
C16G G29C A33U A48C	< 1e-05		< 1e-05	
A14C A42C C70G	< 1e-05			
C16U A42U C67G	6.07e-05 ± 1.8e-05	0.000631 ± 0.00021	0.000203 ± 6.8e-05	
G13U G37A A53C G60U C67G	< 1e-05	< 1e-05	< 1e-05	
C11U G41C A52U	< 1e-05	< 1e-05	< 1e-05	
G29C U46G U47A C70G	5.51e-05 ± 2.1e-05	6.12e-05 ± 2.5e-05	0.00011 ± 3.9e-05	
A15C U31G U69G	4.96e-05 ± 2e-05		0.000378 ± 9.2e-05	
A12U G29A A53G G62A	< 1e-05	< 1e-05	< 1e-05	
G13A A33C	< 1e-05		< 1e-05	< 1e-05
U30C A36G C67A	< 1e-05	< 1e-05		
C16A G59A C70G	9.32e-05 ± 3.1e-05			
